Experimental data published in US20020164657A1, “Assays for assessing A beta-Tau aggregation” (priority 2001, published 2002).

Target: T1, tau phosphorylated by TPK II (Homo sapiens, UniProt P10636)
T1 construct: Human recombinant tau 1-383 isoform; made in house; host or cells: tau and p20: E. coli; cdk5: baculovirus-infected insect cells
Experiment: Gel-shift assay of TPK II tau phosphorylation
Assay type: biochemical
Details: 3 μM tau, 50 nM TPK II, 60 μM Aβ peptide, 4 hours, FIG. 8
Protocol: Gel-shift assays were done by incubating 3 μM tau with 50 nM TPK II and/or 167 units/ml TPK I for the indicated time at 37° C. in a total volume of 20 μl containing 40 mM Tris, pH 7.5, 10 mM MgCl2, 1 mM DTT, and 1 mM ATP. Aβ peptides were added at 10× concentrations to the assay to achieve the final concentration indicated. Following incubation the samples were electrophoresed on 12% SDS-PAGE and stained with Coomassie Blue R-250.

T1 sequence (P10636 1-383 isoform P10636-6): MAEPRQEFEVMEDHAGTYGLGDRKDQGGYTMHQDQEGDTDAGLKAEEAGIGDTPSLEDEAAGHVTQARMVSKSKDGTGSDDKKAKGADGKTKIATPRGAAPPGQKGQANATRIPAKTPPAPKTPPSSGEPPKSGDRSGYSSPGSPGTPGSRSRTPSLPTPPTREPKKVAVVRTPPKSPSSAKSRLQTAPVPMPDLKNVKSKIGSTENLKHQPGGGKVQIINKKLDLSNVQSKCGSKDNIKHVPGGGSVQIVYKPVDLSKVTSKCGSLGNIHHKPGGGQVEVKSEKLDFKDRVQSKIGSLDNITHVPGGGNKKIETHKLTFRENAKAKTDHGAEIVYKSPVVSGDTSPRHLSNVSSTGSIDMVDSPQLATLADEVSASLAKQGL

Substance: Aβ 1-40: beta-amyloid peptide, residues 1-40, obtained from Bachem; control peptide
- effect on tau gel shift: no effect

Substance: Aβ 25-35: beta-amyloid peptide fragment 25-35, obtained from Bachem; control peptide (GSNKGAIIGLM)
- effect on tau gel shift: no effect
